Data from publication PMC13042586, “ATP13A2 is involved in intracellular polyamine transport in lung epithelial cells” (FEBS Open Bio, 2025).

Substrate: NCCCCNCCCN
Experiment: polyamine-dependent ATPase activity (Pi release, molybdate), Hill fit
Assay type: biochemical, Homo sapiens
Settings: microsomes of overexpressing H441 cells, 2 mM ATP, 5 mM MgCl2, 20 mM Tris-HCl pH 8.0, 10% glycerol, 1 mM DTT, 37 °C, 30 min, Hill coefficient n = 1, constant printed as Kd but from ATPase stimulation
Description: polyamine-dependent ATPase activity (Pi release, molybdate), Hill fit on ATP13A2 | Polyamine dependence of ATP13A2 was fitted to the Hill equation

B1: ATP13A2 (Homo sapiens) (protein)
chain: MSADSSPLVGSTPTGYGTLTIGTSIDPLSSSVSSVRLSGYCGSPWRVIGYHVVVWMMAGIPLLLFRWKPLWGVRLRLRPCNLAHAETLVIEIRDKEDSSWQLFTVQVQTEAIGEGSLEPSPQSQAEDGRSQAAVGAVPEGAWKDTAQLHKSEEAVSVGQKRVLRYYLFQGQRYIWIETQQAFYQVSLLDHGRSCDDVHRSRHGLSLQDQMVRKAIYGPNVISIPVKSYPQLLVDEALNPYYGFQAFSIALWLADHYYWYALCIFLISSISICLSLYKTRKQSQTLRDMVKLSMRVCVCRPGGEEEWVDSSELVPGDCLVLPQEGGLMPCDAALVAGECMVNESSLTGESIPVLKTALPEGLGPYCAETHRRHTLFCGTLILQARAYVGPHVLAVVTRTGFCTAKGGLVSSILHPRPINFKFYKHSMKFVAALSVLALLGTIYSIFILYRNRVPLNEIVIRALDLVTVVVPPALPAAMTVCTLYAQSRLRRQGIFCIHPLRINLGGKLQLVCFDKTGTLTEDGLDVMGVVPLKGQAFLPLVPEPRRLPVGPLLRALATCHALSRLQDTPVGDPMDLKMVESTGWVLEEEPAADSAFGTQVLAVMRPPLWEPQLQAMEEPPVPVSVLHRFPFSSALQRMSVVVAWPGATQPEAYVKGSPELVAGLCNPETVPTDFAQMLQSYTAAGYRVVALASKPLPTVPSLEAAQQLTRDTVEGDLSLLGLLVMRNLLKPQTTPVIQALRRTRIRAVMVTGDNLQTAVTVARGCGMVAPQEHLIIVHATHPERGQPASLEFLPMESPTAVNGVKDPDQAASYTVEPDPRSRHLALSGPTFGIIVKHFPKLLPKVLVQGTVFARMAPEQKTELVCELQKLQYCVGMCGDGANDCGALKAADVGISLSQAEASVVSPFTSSMASIECVPMVIREGRCSLDTSFSVFKYMALYSLTQFISVLILYTINTNLGDLQFLAIDLVITTTVAVLMSRTGPALVLGRVRPPGALLSVPVLSSLLLQMVLVTGVQLGGYFLTLAQPWFVPLNRTVAAPDNLPNYENTVVFSLSSFQYLILAAAVSKGAPFRRPLYTNVPFLVALALLSSVLVGLVLVPGLLQGPLALRNITDTGFKLLLLGLVTLNFVGAFMLESVLDQCLPACLRRLRPKRASKKRFKQLERELAEQPWPPLPAGPLR
notes: full-length with C-terminal TEV site, Halo tag and 6xHis (tags kept; ATP13A2-Halo, theoretical mass 165 K), adenovirus-mediated overexpression in NCI-H441 cells, microsome fraction
- K0.5: 1.00 mM
